Results reported in patent US20180344813A1, “ENGINEERED POLYPEPTIDES HAVING ENHANCED DURATION OF ACTION WITH REDUCED IMMUNOGENICITY” (priority 2016, published 2018).

Legend:
GLP-1 receptor = target: T1, GLP-1 receptor (Rattus norvegicus, UniProt P32301); assay: GLP-1 receptor functional assay: cAMP induction (HTRF) in rat thyroid carcinoma 6-23 (clone 6) cells; type: cell-based
T1 construct: functional activity was determined using cells that endogenously express GLP-1R; endogenous in cells; host or cells: rat thyroid carcinoma 6-23 (clone 6) cells
T1 sequence (P32301 22-463): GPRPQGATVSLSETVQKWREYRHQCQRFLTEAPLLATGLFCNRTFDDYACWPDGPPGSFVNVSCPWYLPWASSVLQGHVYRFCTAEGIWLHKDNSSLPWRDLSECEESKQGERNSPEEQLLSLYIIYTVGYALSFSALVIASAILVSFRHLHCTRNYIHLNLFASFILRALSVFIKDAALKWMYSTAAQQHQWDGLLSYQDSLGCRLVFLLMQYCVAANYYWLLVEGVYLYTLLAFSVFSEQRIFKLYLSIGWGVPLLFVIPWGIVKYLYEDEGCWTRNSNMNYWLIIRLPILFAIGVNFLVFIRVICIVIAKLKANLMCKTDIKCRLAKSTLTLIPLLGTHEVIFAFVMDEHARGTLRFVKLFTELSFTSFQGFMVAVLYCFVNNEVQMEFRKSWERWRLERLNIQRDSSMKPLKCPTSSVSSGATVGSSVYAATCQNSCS

NIH/Swiss mice = assay: OGTT DOA (oral glucose tolerance test duration of action); type: in vivo, mouse; conditions: NIH/Swiss mice; drug given 24 hours before OGTT
Method: For example, duration can be performed using an oral glucose tolerance test (OGTT) in which the drug is administered to the subject at a desired time point before the glucose is administered orally(to measure drug duration of action; OGTT DOA) and glucose blood levels are measured (e.g. readily done in mice).
Drug was administered to 4-hr fasted NIH/Swiss mice. […] Blood glucose was measured with a OneTouch® Ultra® (LifeScan, Inc., a Johnson & Johnson Company, Milpitas, Calif.). *p<0.05 vs. vehicle control; ANOVA, Dunnett's test. Glucose lowering as percent lowering compared to vehicle is given (negative value indicates lowering of glucose) at 30 minutes post gavage.

B1: HGEGTFTSDLSKQLEEEAVRLFIEWLKNTGGGGSASGSLAEAKEAANAELDSYGVS DFYKRLIDKAKTVEGVEALKDAILAALP (protein)
chain: HGEGTFTSDLSKQLEEEAVRLFIEWLKNTGGGGSASGSLAEAKEAANAELDSYGVSDFYKRLIDKAKTVEGVEALKDAILAALP
in vitro activity against the GLP-1 receptor (GLP-1 receptor): active in vitro against the GLP-1 receptor | activity in OGTT DOA when dosed at t-24 hours (NIH/Swiss mice): did not display 24 duration
